Assays:
[1] = biological target: human C1, P02745;P02746;P02747; assay: HS-AFM; conditions: CL domain anchored onto a Ni2+-coated mica surface using the C-terminal hexahistidine tag; count in 10 different scanning areas; parent: est. 150; read off a plot
[2] = biological target: human C1q, P02745;P02746;P02747; assay: HS-AFM; conditions: CL domain anchored onto a Ni2+-coated mica surface using the C-terminal hexahistidine tag; count in 10 different scanning areas; parent: est. 88; read off a plot

Row | Substance | response [1] [molecules] | response [2] [molecules]
1 | human Cκ domain (from UniProt P01834) E194A | 55 | 19
2 | human Cκ domain (from UniProt P01834) K206A | 160 | 83
